Article PMC3182237, “Downregulation of the Hsp90 System Causes Defects in Muscle Cells of Caenorhabditis Elegans” (PLoS ONE, 2011)

Legend:
Details in all cases: both partners purified
[1] = biological target: T1, DAF-21 (C. elegans, UniProt Q18688 1-702); experiment: AUC; sedimentation velocity with fluorescence detection; fluorescein-labelled cofactor 300 nM, DAF-21 or variant 6 µM; with 4 mM AMP-PNP; 20 to 22°C, 42.000 r.p.m.; dc/dt analysis
T1 construct: DAF-21, the Hsp90 homolog of Caenorhabditis elegans; also called Hsp90; wt-DAF-21; source: E. coli BL21-CodonPlus (DE3)-RIL, purified (HisTrap FF, ResourceQ, Superdex SEC); not shown: His tag (from the vector pET28b)

[2] = biological target: T2, E292K-DAF-21 (C. elegans, UniProt Q18688 1-702, E292K); experiment: as above
T2 construct: DAF-21, the Hsp90 homolog of Caenorhabditis elegans, with the point mutation of the allele daf-21(p673); The mutation occurs in the nematode strain JT6130 (daf-21(p673)); The recombinant variant was made from the daf-21 cDNA; also called E292K variant; DAF-21 of daf-21(p673), strain JT6130; source: E. coli BL21-CodonPlus (DE3)-RIL, purified (HisTrap FF, ResourceQ, Superdex SEC); not shown: His …

[3] = biological target: T1, DAF-21; experiment: AUC; sedimentation velocity with fluorescence detection; fluorescein-labelled cofactor 300 nM, DAF-21 or variant 6 µM; no nucleotide; 20 to 22°C, 42.000 r.p.m.; dc/dt analysis
[4] = biological target: T2, E292K-DAF-21; experiment: as above

Binder	binding result [1]	binding result [2]	binding result [3]	binding result [4]
Cep23 (ZC395.10), fluorescein-labelled (natural protein, C. elegans, UniProt Q23280 1-175, looked up, 5-carboxyfluorescein (N-succinimidyl ester) at lysine residues, Cep23, the p23 cofactor of Hsp90 in Caenorhabditis elegans (ZC395.10); also called Labelled Cep23; source: E. coli BL21-CodonPlus (DE3)-RIL, purified (HisTrap FF, ResourceQ, Superdex SEC); not shown: His tag (from the vector pET28b)) MAKQPTVLWAQRESLVYLTIEVDEAKIEELKGEGNKLHFQGSSKTDKYEATLEFFDEIDPASVKHTGSSTRVVEITVQKKTPAWWPRLLQNKGKVHWLKVDFGKWKDEDEDDEAEDAGAGIGGGMANGFDLNQYMSQMGGAGGADFGGLEDDEEDDDMPDLEDNEEEEGKNGTRA	binds	binds	–	–
STI-1, fluorescein-labelled (natural protein, C. elegans, UniProt O16259 1-320, looked up, 5-carboxyfluorescein (N-succinimidyl ester) at lysine residues, STI-1, TPR-containing cofactor of Hsp90 in Caenorhabditis elegans; also called labelled STI-1; source: E. coli BL21-CodonPlus (DE3)-RIL, purified (HisTrap FF, ResourceQ, Superdex SEC); not shown: His tag (from the vector pET28b)) MTDAAIAEKDLGNAAYKQKDFEKAHVHYDKAIELDPSNITFYNNKAAVYFEEKKFAECVQFCEKAVEVGRETRADYKLIAKAMSRAGNAFQKQNDLSLAVQWFHRSLSEFRDPELVKKVKELEKQLKAAERLAYINPELAQEEKNKGNEYFKKGDYPTAMRHYNEAVKRDPENAILYSNRAACLTKLMEFQRALDDCDTCIRLDSKFIKGYIRKAACLVAMREWSKAQRAYEDALQVDPSNEEAREGVRNCLRSNDEDPEKAKERSLADPEVQEILRDPGMRMILEQMSNDPGAVREHLKNPEIFQKLMKLRDAGVIQMR	–	–	binds	binds
